“And” between values parts separate entries of the source, which are not always exact repeats. Identical values can stand only once. Each block holds one molecule with its values, some of them ahead of it.
Key:
[1] = target: T1, N-terminal DNA-binding domain of AbrB (AbrBN), residues 1-53 (B. subtilis); assay: AUC
T1 sequence (P08874 whole entry, looked up): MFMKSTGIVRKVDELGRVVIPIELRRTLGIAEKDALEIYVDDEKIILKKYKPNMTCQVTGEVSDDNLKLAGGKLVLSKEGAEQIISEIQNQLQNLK

[2] = target: T1, N-terminal DNA-binding domain of AbrB (AbrBN), residues 1-53 (B. subtilis); assay: SEC
[3] = target: C-terminal multimerization domain of AbrB (AbrBC), residues 54-94 (B. subtilis); assay: SEC
[4] = target: T2, Full-length AbrB from B. subtilis (B. subtilis, UniProt P08874 1-96); assay: ITC
T2 sequence (looked up): T1 sequence (P08874 whole entry, looked up)

[5] = target: the molecule itself; assay: SEC

stoichiometry N [1]: 2
stoichiometry N [2]: 2
Molecule: N-terminal DNA-binding domain of AbrB (AbrBN), residues 1-53 (domain or fragment)

stoichiometry N [3]: 2
Molecule: C-terminal multimerization domain of AbrB (AbrBC), residues 54-94 (domain or fragment)

stoichiometry N (AbbA chains per AbrBN chain (2:2)) [1]: 1
Kd [4]: 16 nM and 11 to 21 nM
stoichiometry N [4]: 0.868 to 0.969 (2×) and 0.918
B1: AbbA (anti-repressor protein AbbA from B. subtilis), histidine tag removed (natural protein, UniProt O31697 1-65, looked up)
chain: MRMSLIGERFTEEEQKLLLNILINHEYAIELLSSEINDIETGTKNVDGTTYKKLVTLYDRFRFEN
stoichiometry N [5]: 2

Source: paper PMC4017629 (Journal of molecular biology, 2014)
